Test results as given in US20250027068.
Positions count from the first letter of the chain named.

Target: pooled human IgG

B1: PRT-563 (protein)
chain: MANQEIRYSEATPSHITSVWTKGVTPPTQFIQNEDVLHAPYIANQGWYDITKTFNGKDDLLCGAATAGNMLHWWFDQNKTQIENYLKKHPEKQKINFNGEQMFDVKEAIDTKDSQTDSALFSYFKDKAFPYLSTKHLGVFPDHVIDMFINGYRLSLTNHGPTPVKRQTKDPRGGIFDAVFTRGDQSKLLTARHDFKEKTLNEISQLIKQELTEGKALGLSHTYANVRINHVINLWGADFNAEGNLEAIYVTDSDSNASIGMKKYYVGVNAAGKVAISAKEIEGDNIGAQVLGLFTLSTGQDIWQQTNLEHHHHHH
- Enzyme Activity Endpoint Assay (purified): Fab′2: 816 ng/µL
- Enzyme Activity Endpoint Assay (purified): Fc: 389 ng/µL
- Enzyme Activity Endpoint Assay (purified): IgG: 0 ng/µL
- Enzyme Activity Endpoint Assay (purified): scIgG: 0 ng/µL

B2: PRT-71 (protein)
chain: MANQEIRYSEVTPYHVTSVWTKGVTPPANFTQGEDVFHAPYVANQGWYDITKTFNGKDDLLCGAATAGNMLHWWFDQNKEEIEAYLKKHPEKQKIMFGDQELLDVRKVINTKGSQTNSELFNYFRDKAFPGLSARRLGVMPDLVLDMFINGYYLNVYKTQTTDVNRTYQEKDKRGGIFDAVFTRGDQSKLLTSRHDFKEKNLKEISDLIKKELTEGKALGLSHTYANVRINHVINLWGADFDSNGNLKAIYVTDSDSNASIGMKKYFVGVNSAGKVAISAKEIKEDNIGAQVLGLFTLSTGQDIWNQTN
- Enzyme Activity Endpoint Assay (purified): Fab′2: 53 ng/µL
- Enzyme Activity Endpoint Assay (purified): Fc: 126 ng/µL
- Enzyme Activity Endpoint Assay (purified): IgG: 25 ng/µL
- Enzyme Activity Endpoint Assay (purified): scIgG: 0 ng/µL

B3: PRT-75 (protein)
chain: B2 chain with N29K, E81K, G113D, S114D, Y153R, Y157T, R166E, E170T, E285D
- Enzyme Activity Endpoint Assay (purified): Fab′2: 12 ng/µL
- Enzyme Activity Endpoint Assay (purified): Fc: 76 ng/µL
- Enzyme Activity Endpoint Assay (purified): IgG: 8 ng/µL
- Enzyme Activity Endpoint Assay (purified): scIgG: 54 ng/µL

B4: PRT-72 (protein)
chain: B2 chain with N29K, E81Y, S114D, G131Y, Y157T, K173R
- Enzyme Activity Endpoint Assay (purified): Fab′2: 41 ng/µL
- Enzyme Activity Endpoint Assay (purified): Fc: 100 ng/µL
- Enzyme Activity Endpoint Assay (purified): IgG: 14 ng/µL
- Enzyme Activity Endpoint Assay (purified): scIgG: 8 ng/µL

B5: PRT-74 (protein)
chain: B2 chain with Y14S, D59N, G113D, K173R, N201T
- Enzyme Activity Endpoint Assay (purified): Fab′2: 26 ng/µL
- Enzyme Activity Endpoint Assay (purified): Fc: 73 ng/µL
- Enzyme Activity Endpoint Assay (purified): IgG: 23 ng/µL
- Enzyme Activity Endpoint Assay (purified): scIgG: 27 ng/µL

B6: PRT-73 (protein)
chain: B2 chain with E81K, G113D, S114D, Y157T, K173R, I304S
- Enzyme Activity Endpoint Assay (purified): Fab′2: 52 ng/µL
- Enzyme Activity Endpoint Assay (purified): Fc: 105 ng/µL
- Enzyme Activity Endpoint Assay (purified): IgG: 28 ng/µL
- Enzyme Activity Endpoint Assay (purified): scIgG: 5 ng/µL

B7: PRT-608 (protein)
chain: MQITSVWTKGVTPLTPEQFRYNNEDVIHAPYLAHQGWYDITKAFDGKDNLLCGAATAGNMLHWWFDQNKTEIEAYLSKHPEKQKIIFNNQELFDLKAAIDTKDSQTNSQLFNYFRDKAFPNLSARQLGVMPDLVLDMFINGYYLNVFKTQSTDVNRPYQDKDKRGGIFDAVFTRGDQTTLLTARHDLKNKGLNDISTIIKQELTEGRALALSHTYANVSISHVINLWGADFNAEGNLEAIYVTDSDADEKIGMKKYFVGINAHGHVAISAKKIEGENIGAQVLGLFTLSSGKDIWQKLSLEHHHHHH
- Enzyme Activity Endpoint Assay (purified): Fab′2: 863 ng/µL
- Enzyme Activity Endpoint Assay (purified): Fc: 484 ng/µL
- Enzyme Activity Endpoint Assay (purified): IgG: 0 ng/µL
- Enzyme Activity Endpoint Assay (purified): scIgG: 0 ng/µL

B8: PRT-630 (protein)
chain: MQITSVWTKGVTPLTPEQFRYNNEDVIHAPYLAHQGWYDITKAFDGKDNLLCGAATAGNMLHWWFDQNKEEIENYLKKYPEKQKIIFNNQELFDLKAAIDTKDSQTNSQLFNYFRDKAFPNLSARQLGVMPDLVLDMFINGYYLNVFKTQSTDVNRPYQDKDKRGGIFDAVFTRGDQTTLLTARHDLKNKGLNDISTIIKQELTEGRALALSHTYANVSISHVINLWGADFNAEGNLEAIYVTDSDANASIGMKKYFVGINAHGHVAISAKKIEGENIGAQVLGLFTLSSGQEIWEQLSLEHHHHHH
- Enzyme Activity Endpoint Assay (purified): Fab′2: 850 ng/µL
- Enzyme Activity Endpoint Assay (purified): Fc: 464 ng/µL
- Enzyme Activity Endpoint Assay (purified): IgG: 0 ng/µL
- Enzyme Activity Endpoint Assay (purified): scIgG: 0 ng/µL

B9: PRT-67 (protein)
chain: MANQEIRYSEVTPYHVTSVWTKGVTPPANFTQGEDVFHAPYVANQGWYDINKTFNGKDDLLCGAATAGNMLHWWFDQNKDQIKRYLEEHPEKQKINFNGEQMFDVKEAIDTKNHQLDSKLFEYFKEKAFPYLSTKHLGVFPDHVIDMFINGYRLSLTNHGPTPVKEGSKDPRGGIFDAVFTRGDQSKLLTSRHDFKEKNLKEISDLIKKELTEGKALGLSHTYANVRINHVINLWGADFDSNGNLKAIYVTDSDSNASIGMKKYFVGVNSAGKVAISAKEIKEDNIGAQVLGLFTLSTGQDSWNQTN
- Enzyme Activity Endpoint Assay (purified): Fab′2: 10 ng/µL
- Enzyme Activity Endpoint Assay (purified): Fc: 78 ng/µL
- Enzyme Activity Endpoint Assay (purified): IgG: 23 ng/µL
- Enzyme Activity Endpoint Assay (purified): scIgG: 61 ng/µL

B10: PRT-5 (protein)
chain: B9 chain with N51T, K83E, E87K, E88K, H114S, K246E, S302I
- Enzyme Activity Endpoint Assay: Fab′2: 34 ng/µL
- Enzyme Activity Endpoint Assay: Fc: 117 ng/µL
- Enzyme Activity Endpoint Assay: IgG: 18 ng/µL
- Enzyme Activity Endpoint Assay: scIgG: 34 ng/µL

B11: PRT-70 (protein)
chain: B9 chain with N51T, D80E
- Enzyme Activity Endpoint Assay (purified): Fab′2: 47 ng/µL
- Enzyme Activity Endpoint Assay (purified): Fc: 124 ng/µL
- Enzyme Activity Endpoint Assay (purified): IgG: 14 ng/µL
- Enzyme Activity Endpoint Assay (purified): scIgG: 14 ng/µL

B12: PRT-68 (protein)
chain: B9 chain with N51T, A178D
- Enzyme Activity Endpoint Assay (purified): Fab′2: 51 ng/µL
- Enzyme Activity Endpoint Assay (purified): Fc: 133 ng/µL
- Enzyme Activity Endpoint Assay (purified): IgG: 16 ng/µL
- Enzyme Activity Endpoint Assay (purified): scIgG: 16 ng/µL

B13: PRT-69 (protein)
chain: B9 chain with N51T, H114D
- Enzyme Activity Endpoint Assay (purified): Fab′2: 45 ng/µL
- Enzyme Activity Endpoint Assay (purified): Fc: 121 ng/µL
- Enzyme Activity Endpoint Assay (purified): IgG: 14 ng/µL
- Enzyme Activity Endpoint Assay (purified): scIgG: 14 ng/µL

B14: PRT-691 (protein)
chain: MQITTVWTKGVTPPTPEQFRYNNEDVIHAPYLPNQGWYDITKTFNGKDNLLCGAATAGNMLHWWFDQNKTEIEAYLSKYPEKQKIIFNNQELFDLRAAINTKDSQTNSQLFNYFRDKAFPNLSARQLGVMPDLVLDMFINGYYLNVFKTQSTDVNRPYQDRDKRGGIFDAVFNRGDQTTLLTARHDLKNKTLNDISTLIKQELSSGKALALSHTYANVSISHVINLWGADFNAEGNLEAIYVTDSDANASIGMKKYYVGVNAHGKVAISAKKIEGENIGAQVLGLFTLSSGKDIWQKLSLEHHHHHH
- Enzyme Activity Endpoint Assay (purified): Fab′2: 184 ng/µL
- Enzyme Activity Endpoint Assay (purified): Fc: 337 ng/µL
- Enzyme Activity Endpoint Assay (purified): IgG: 110 ng/µL
- Enzyme Activity Endpoint Assay (purified): scIgG: 682 ng/µL
